Measured values as given in patent US10584350B2, “Structurally modified COI1” (Board of Trustees of Michigan State University, priority 2016, dated 2020).
Residue numbers refer to the chain shown, from its start. Names may count otherwise.

B1: Y386: COI1 alanine substitution mutant at Y386 (protein, UniProt O04197 1-592, looked up, variant Y386A)
Coronatine-insensitive …: MEDPDIKRCKLSCVATVDDVIEQVMTYITDPKDRDSASLVCRRWFKIDSETREHVTMALCYTATPDRLSRRFPNLRSLKLKGKPRAAMFNLIPENWGGYVTPWVTEISNNLRQLKSVHFRRMIVSDLDLDRLAKARADDLETLKLDKCSGFTTDGLLSIVTHCRKIKTLLMEESSFSEKDGKWLHELAQHNTSLEVLNFYMTEFAKISPKDLETIARNCRSLVSVKVGDFEILELVGFFKAAANLEEFCGGSLNEDIGMPEKYMNLVFPRKLCRLGLSYMGPNEMPILFPFAAQIRKLDLLYALLETEDHCTLIQKCPNLEVLETRNVIGDRGLEVLAQYCKQLKRLRIERGADEQGMEDEEGLVSQRGLIALAQGCQELEYMAVAVSDITNESLESIGTYLKNLCDFRLVLLDREERITDLPLDNGVRSLLIGCKKLRRFAFYLRQGGLTDLGLSYIGQYSPNVRWMLLGYVGESDEGLMEFSRGCPNLQKLEMRGCCFSERAIAAAVTKLPSLRYLWVQGYRASMTGQDLMQMARPYWNIELIPSRRVPEVNQQGEIREMEHPAHILAYYSLAGQRTDCPTTVRVLKEPI
B2: Q491: COI1 alanine substitution mutant at Q491 (protein, UniProt O04197 1-592, looked up, variant Q491A)
Coronatine-insensitive …: B1 Coronatine-insensitive … with A386Y, Q491A
B3: R516: COI1 alanine substitution mutant at R516 (protein, UniProt O04197 1-592, looked up, variant R516A)
Coronatine-insensitive …: B1 Coronatine-insensitive … with A386Y, R516A
B4: L470: COI1 alanine substitution mutant at L470 (protein, UniProt O04197 1-592, looked up, variant L470A)
Coronatine-insensitive …: B1 Coronatine-insensitive … with A386Y, L470A
B5: F443: COI1 alanine substitution mutant at F443 (protein, UniProt O04197 1-592, looked up, variant F443A)
Coronatine-insensitive …: B1 Coronatine-insensitive … with A386Y, F443A
B6: R440: COI1 alanine substitution mutant at R440 (protein, UniProt O04197 1-592, looked up, variant R440A)
Coronatine-insensitive …: B1 Coronatine-insensitive … with A386Y, R440A
B7: V411: COI1 alanine substitution mutant at V411 (protein, UniProt O04197 1-592, looked up, variant V411A)
Coronatine-insensitive …: B1 Coronatine-insensitive … with A386Y, V411A
B8: F89: COI1 alanine substitution mutant at F89 (protein, UniProt O04197 1-592, looked up, variant F89A)
Coronatine-insensitive …: B1 Coronatine-insensitive … with F89A, A386Y
B9: L469: COI1 alanine substitution mutant at L469 (protein, UniProt O04197 1-592, looked up, variant L469A)
Coronatine-insensitive …: B1 Coronatine-insensitive … with A386Y, L469A
B10: L412: COI1 alanine substitution mutant at L412 (protein, UniProt O04197 1-592, looked up, variant L412A)
Coronatine-insensitive …: B1 Coronatine-insensitive … with A386Y, L412A
B11: D354: COI1 alanine substitution mutant at D354 (protein, UniProt O04197 1-592, looked up, variant D354A)
Coronatine-insensitive …: B1 Coronatine-insensitive … with D354A, A386Y
B12: R351: COI1 alanine substitution mutant at R351 (protein, UniProt O04197 1-592, looked up, variant R351A)
Coronatine-insensitive …: B1 Coronatine-insensitive … with R351A, A386Y
B13: L91: COI1 alanine substitution mutant at L91 (protein, UniProt O04197 1-592, looked up, variant L91A)
Coronatine-insensitive …: B1 Coronatine-insensitive … with L91A, A386Y
B14: L413: COI1 alanine substitution mutant at L413 (protein, UniProt O04197 1-592, looked up, variant L413A)
Coronatine-insensitive …: B1 Coronatine-insensitive … with A386Y, L413A
B15: R121: COI1 alanine substitution mutant at R121 (protein, UniProt O04197 1-592, looked up, variant R121A)
Coronatine-insensitive …: B1 Coronatine-insensitive … with R121A, A386Y
B16: E173: COI1 alanine substitution mutant at E173 (protein, UniProt O04197 1-592, looked up, variant E173A)
Coronatine-insensitive …: B1 Coronatine-insensitive … with E173A, A386Y
B17: Y444A: COI1 alanine substitution mutant at Y444 (protein)
chain: B1 Coronatine-insensitive … with A386Y, Y444A
B18: L410: COI1 alanine substitution mutant at L410 (protein, UniProt O04197 1-592, looked up, variant L410A)
Coronatine-insensitive …: B1 Coronatine-insensitive … with A386Y, L410A
B19: D407: COI1 alanine substitution mutant at D407 (protein, UniProt O04197 1-592, looked up, variant D407A)
Coronatine-insensitive …: B1 Coronatine-insensitive … with A386Y, D407A
B20: Y302A: COI1 alanine substitution mutant at Y302 (protein)
chain: B1 Coronatine-insensitive … with Y302A, A386Y
B21: R326A: COI1 alanine substitution mutant at R326 (protein)
chain: B1 Coronatine-insensitive … with R326A, A386Y
B22: K492: COI1 alanine substitution mutant at K492 (protein, UniProt O04197 1-592, looked up, variant K492A)
Coronatine-insensitive …: B1 Coronatine-insensitive … with A386Y, K492A
B23: R348: COI1 alanine substitution mutant at R348 (protein, UniProt O04197 1-592, looked up, variant R348A)
Coronatine-insensitive …: B1 Coronatine-insensitive … with R348A, A386Y
B24: G357: COI1 alanine substitution mutant at G357 (protein, UniProt O04197 1-592, looked up, variant G357A)
Coronatine-insensitive …: B1 Coronatine-insensitive … with G357A, A386Y
B25: R415: COI1 alanine substitution mutant at R415 (protein, UniProt O04197 1-592, looked up, variant R415A)
Coronatine-insensitive …: B1 Coronatine-insensitive … with A386Y, R415A
B26: M88: COI1 alanine substitution mutant at M88 (protein, UniProt O04197 1-592, looked up, variant M88A)
Coronatine-insensitive …: B1 Coronatine-insensitive … with M88A, A386Y
B27: Y472: COI1 alanine substitution mutant at Y472 (protein, UniProt O04197 1-592, looked up, variant Y472A)
Coronatine-insensitive …: B1 Coronatine-insensitive … with A386Y, Y472A

Assays:
[1] = tested on: COI1-JAZ9 interaction; experiment: Quantitative liquid Y2H assays (Beta-Glo, RLU); format: cell-based, Arabidopsis; settings: yeast; JA-Ile is a mixture of active and inactive isomers, COR pure
Procedure: (§1) Yeast EGY48 strain carrying the p8Op:LacZ reporter plasmid was co-transformed with pGilda:COI1 (or COI1 mutants) and pB42AD:JAZ9 (or other JAZs) (Clontech). Colonies were selected on SD minimal plates (BD Biosciences) supplemented with the—uracil (U)/-tryptophan (W)/-histidine (H) amino acid drop out solution (Clontech). Yeast colonies were cultured overnight in liquid SD-UWH medium, harvested, washed twice in sterile water, and the absorbance (OD600) of the cultures was adjusted to 0.2 in liquid SD galactose/raffinose-UWH medium (BD Biosciences).
For liquid Y2H assays, cultures were supplemented with designated concentrations of JA-Ile (10 or 30 μM), COR (1 μM), or DMSO. After 16-h incubation with ligands, the liquid cultures were processed through the Beta-Glo Assay system (Promega) for detecting the β-galactosidase activity. […] Protein expression in yeast was detected using anti-LexA antibody (1:5,000; Upstate Biotechnology) for detection of COI1 expression from pGilda vector and anti-HA (1:5,000; Roche Life Science) antibody for detection of JAZ9 expression in pB42AD vector.

[2] = tested on: COI1-JAZ9 interaction; experiment: Y2H assays on plates for protein-protein interaction; format: cell-based, Arabidopsis; settings: 10 μM COR, yeast
Procedure: as §1
For Y2H assays on plates, 10-μL culture was spotted onto SD galactose/raffinose-UWH plates with 80 μg/mL X-gal and 10 μM COR (Sigma-Aldrich). Blue color indicated protein-protein interactions after 5-7 days of incubation at 30° C.

| Molecule | COR-dependent COI1-JAZ9 interaction [2] | further results |
| --- | --- | --- |
| CC/C=C\C[C@H]1C(=O)CC[C@@H]1CC(=O)N[C@H](C(=O)O)[C@@H](C)CC [JA-Ile, jasmonoyl-L-isoleucine, reference compound] |  | concentrations equivalent in promoting the COI1-JAZ9 interaction [1]: 10 µM |
| B1 | reduced |  |
| B2 | reduced |  |
| B3 | reduced |  |
| B4 | reduced |  |
| B5 | reduced |  |
| B6 | reduced |  |
| B7 | reduced |  |
| B8 | reduced |  |
| B9 | reduced |  |
| B10 | reduced |  |
| B11 | reduced |  |
| B12 | reduced |  |
| B13 | reduced |  |
| B14 | reduced |  |
| B15 | reduced |  |
| B16 | reduced |  |
| B17 | disrupted | COR-dependent COI1-JAZ9 interaction ([2]; listed as Y444): reduced |
| B18 | reduced |  |
| B19 | reduced |  |
| B20 | disrupted | COR-dependent COI1-JAZ9 interaction ([2]; listed as Y302): reduced |
| B21 | disrupted | COR-dependent COI1-JAZ9 interaction ([2]; listed as R326): reduced |
| B22 | reduced |  |
| B23 | reduced |  |
| B24 | reduced |  |
| B25 | reduced |  |
| B26 | reduced |  |
| B27 | reduced |  |
